{
  "source": "patent US9395368B2",
  "about": "“Methods, agents and peptides for inducing an immune response to matrix metalloproteinase-2 expressing tumors” (New York University, priority 2010, dated 2016)",
  "molecules": {"B1": {"name": "active MMP-2: Purified human MMP-2 (mixture of the proenzyme (50%) and the active form (50%)) purchased from Biomol (protein, listed as Homo sapiens)", "chain": "MEALMARGALTGPLRALCLLGCLLSHAAAAPSPIIKFPGDVAPKTDKELAVQYLNTFYGCPKESCNLFVLKDTLKKMQKFFGLPQTGDLDQNTIETMRKPRCGNPDVANYNFFPRKPKWDKNQITYRIIGYTPDLDPETVDDAFARAFQVWSDVTPLRFSRIHDGEADIMINFGRWEHGDGYPFDGKDGLLAHAFAPGTGVGGDSHFDDDELWTLGEGQVVRVKYGNADGEYCKFPFLFNGKEYNSCTDTGRSDGFLWCSTTYNFEKDGKYGFCPHEALFTMGGNAEGQPCKFPFRFQGTSYDSCTTEGRTDGYRWCGTTEDYDRDKKYGFCPETAMSTVGGNSEGAPCVFPFTFLGNKYESCTSAGRSDGKMWCATTANYDDDRKWGFCPDQGYSLFLVAAHEFGHAMGLEHSQDPGALMAPIYTYTKNFRLSQDDIKGIQELYGASPDIDLGTGPTPTLGPVTPEICKQDIVFDGIAQIRGEIFFFKDRFIWRTVTPRDKPMGPLLVATFWPELPEKIDAVYEAPQEEKAVFFAGNEYWIYSASTLERGYPKPLTSLGLPPDVQRVDAAFNWSKNKKTYIFAGDKFWRYNEVKKKMDPGFPKLIADAWNAIPDNLDAVVDLQGGGHSYFFKGAYYLKLENQSLKSVKFGSIKSDWLGC"}},
  "key": {"rhIFNAR1": {"tested_on": "rhIFNAR1", "assay": "Overnight incubation of rhIFNAR1 with MMP-2 (Western blot)", "assay_type": "biochemical, human", "details": "incubated overnight", "procedure": "Immature DCs were incubated with MMP-2 (0.5 μg/mL or 5 μg/mL) and poly(I:C)-matured 1 h later. IL-12 levels were measured 16 h later. (A) Results are represented as a percentage of IL-12p70 levels, measured by CBA, produced when DCs were incubated with poly(I:C) only (n=11). (B) For intracellular staining of IL-12p35 and IL-12p40 chains, Brefeldin A was added 4 h after poly(I:C) activation and cells were stained after an additional 12 h incubation. Numbers in the upper right quadrants are the percentages of each population for a representative donor (n=3). (C,D) Immature DCs were incubated with MMP-2 for 1 h (5 μg/mL) before poly(I:C) maturation. Intracellular staining of phosphorylated (Y701) STAT1 (P-STAT1) was performed 3 h later. A representative donor (C) and results for all 3 donors (D) are shown. […] (E) Immature DCs were incubated with MMP-2 and poly(I:C)-matured 1 h later. IFNβ levels were measured by ELISA 16 h later. Results are represented as a percentage of IFNβ levels produced when DCs were incubated with poly(I:C) only (n=9). (F,G) 10^6DCs/lane were treated with 0.1 μg MMP-2 or controls. Poly(I:C) was added 1 h later. IFNAR1 protein expression was detected the next day by Western blot analysis using a rabbit monoclonal antibody. […]\nWestern blots IFNAR1 and β-actin were detected by Western blot analysis using rabbit and mouse mAbs, respectively. […]"}, "[1]": {"tested_on": "Cord blood-derived CD4+/CD25- cells", "assay": "Priming of naive cord blood CD4+ T cells with autologous CD4- cells loaded with different sources of MMP-2", "assay_type": "cell-based, human", "procedure": "Cord blood-derived CD4^+/CD25^− cells from 11 donors were stimulated with irradiated autologous CD4^− cells loaded either with active MMP-2, heat-inactivated (HI) MMP-2 or with MMP-2 pre-incubated with a specific inhibitor (+I). After 15 days, CD4^+ T cells were stimulated with the MMP-2 peptide pool (2 μM) for 6 h before intracellular staining of cytokines. (A) Density plots representing cytokine production by CD4^+ T cells are shown for the representative donor CB35 primed to MMP-2 either in its active form or after heat-inactivation. Numbers indicate percentages of cytokine-producing cells upon MMP-2 peptide stimulation. […] MMP-2 enzymatic activity was controlled (FIG. 13C-D). For each cytokine, 3 paired t-tests were used to compare active MMP-2 to heat inactivated MMP-2, to MMP-2+I, and to MMP-2 peptides. P values≦0.0167 (*) were considered statistically significant using a Bonferroni correction for 3 comparisons.\nT Cell culture, stimulation and priming. Peripheral blood mononuclear cells (PBMCs) were purified from healthy donor-(HD) or cord blood donor-(CB) derived buffy coats (New York Blood Center) by Ficoll-Paque Plus (GE Healthcare) centrifugation. CD4^+/CD25^− cells were enriched (>90%) by magnetic cell sorting (Miltenyi Biotec) and primed/stimulated for 12-15 days either with irradiated (35Gy) autologous CD4^− cells or with autologous mature DCs in IMDM (GIBCO) supplemented with 1 mM HEPES (Life Technologies), 2 mM L-glutamine (Sigma), streptomycin (100 UI/mL)/penicillin (100 μg/mL) (Sigma) and 5% heat inactivated pooled human serum (PHS; Valley Biomedical) in the presence of rhIL-2 (10 UI/mL) and IL7 (5 ng/mL) (R&D Systems). Antigen presenting cells (CD4^− cells or DCs) were loaded either with peptides (2 μM) or with the MMP-2 protein (10 μg/mL) for 2 and 5 h, respectively. DCs were matured using the TLR3 agonist poly(I:C) at 5 μg/mL/10^6 DCs (Amersham). To generate T cell clones, we originally relied on our published methodology (Godefroy et al., 2006; Godefroy et al., 2007; the entire contents of each of which is incorporated herein by reference), involving enrichment of IFNγ-secreting cells upon short-term culture and peptide stimulation to generate MMP-2 responsive clones. Briefly, CD4^+ T cells were stimulated by CD4^− cells irradiated and pulsed with peptides for 12 days in the presence of rhIL-2 and rhIL-7. CD4^+ T cells were then restimulated with peptides for 3 hours before capturing IFNγ-secreting specific cells using a bispecific antibody coating T cells and capturing produced IFNγ. Positive cells were purified magnetically before being cloned. Although MMP-2-specific cells could be isolated, it was realized that IFNγ secretion was marginal compared to their secretion of IL-4 and TNFα. IFNγ-secreting cells in response to MMP-2 peptide pool were enriched by cytokine-guided magnetic cell sorting (Miltenyi Biotec) as described above and cloned the following day by limiting dilution in the presence of irradiated allogeneic PBMCs, 1 μg/mL phytohemagglutinin-L (Sigma) and 150 UI/mL rhIL-2. Tumor infiltrating lymphocytes (TILs) were provided by Pr. F. Jotereau and B. Dréno. They were obtained from tumor-invaded lymph nodes of melanoma patients (stage Mb) and expanded ex vivo. These patients received autologous TILs and IL-2 infusions in a clinical trial (Labarriere et al., 2002). This protocol was approved by the Institutional Ethics Committee and registered with regulatory state authority in France (Nantes).\nIntracellular staining T-bet and GATA-3 expression was measured on resting T cells. Cells were fixed (4% paraformaldehyde for 10 min at RT), permeabilized with 0.1% saponin, and stained for intracellular transcription factors. Cytokine production by T cells was also assessed by intracellular staining T cells were stimulated with 2 μM overlapping peptides. After 1 h, 10 μg/mL brefeldin A was added to the cells. […]"}},
  "data": [
    {"molecule": "B1", "values": [
      {"measurement": "degradation of rhIFNAR1 (≈110 kD)", "setting": "rhIFNAR1", "result": "degraded"},
      {"measurement": "percentage of MMP-2-specific CD4+ T cells secreting IL-4, mean", "setting": "[1]; 11 cord blood donors, 15 days after priming, after background subtraction", "result": 2.38, "unit": "%"},
      {"measurement": "IFNγ and IL-2 production compared to inactive MMP-2 or peptides", "setting": "[1]; primed cells, 15 days", "result": "less"}
    ]}
  ]
}
